Assay results published in the supplement of paper PMC12764529.
± gives the half width of the 95% confidence interval.

How the values were obtained:
[1] = folding stability dG unfold from chymotrypsin proteolysis; higher = more stable
Method in brief: (§1)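 How resistant each design was to proteolysis was captured as K50, inferred by Bayesian fitting of sequencing counts. Unfolding free energy was then derived relative to a sequence-predicted unfolded-state K50 and a shared folded-state K50, per protease or combined. Digestion used trypsin and chymotrypsin at 11 threefold-diluted concentrations plus a no-protease condition, on mini-proteins under 80 residues without cysteine in a PA-tagged cDNA display construct. Designs were kept only when AlphaFold2 dimer inter-PAE was above 15.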

[2] = folding stability dG unfold (combined trypsin and chymotrypsin); higher = more stable
Method in brief: as §1

[3] = folding stability dG unfold from trypsin proteolysis; higher = more stable
Method in brief: as §1

| Sequence | folding stability dG unfold [1] | folding stability dG unfold [2] | folding stability dG unfold [3] |
| --- | --- | --- | --- |
| SAGGSKTIVIDPEKVVKVEVKKNENGEKEIRIVVKNKDGEEKEVTIKPGEKLELPPKVEVVVLPEKSAGGSA [r2_347_TrROS_Hall] | 1.39 ± 0.18 kcal/mol | 0.965 ± 0.19 kcal/mol | -0.517 ± 0.28 kcal/mol |
| SAGGSKTLIIKIEKIEEFYPPFNNDKIKIPVSVYDPETGEKVLSNEEVAKILEKLFPGIKIGWEEGSAGGSA [r2_27_TrMRF] | 0.719 ± 0.036 kcal/mol | 0.937 ± 0.06 kcal/mol | 1.06 ± 0.032 kcal/mol |
| SAGGSLDVKIEITPPDGSTRTLDIEVESEEEAIKIAEELQKELGEGNTLKVRITYPGPKSPVELELKSAGGS [r8_107_JUSTAS] | 2.51 ± 0.046 kcal/mol | 2.2 ± 0.065 kcal/mol | 1.53 ± 0.04 kcal/mol |
| SAGGSLEEVARALARELGLPDVEVRDIPVEVLPNGTVRIPVTIVRPEAGEPLPPLEVELAPDEPLLSAGGSA [r2_137_JUSTAS] | -0.236 ± 0.15 kcal/mol | -0.198 ± 0.14 kcal/mol | -0.0103 ± 0.14 kcal/mol |
| SAGGSLKIRTVLRLPSPDGTPYLVFSKEAVIHPVPNIVHINLLVPDKEITLTVPLNEVELLGSPEEVLSSAG [r5_15_TrMRF] | 2.81 ± 0.029 kcal/mol | 2.65 ± 0.097 kcal/mol | 2.13 ± 0.048 kcal/mol |
| SAGGSLRGVLFDPEGGRVYVLEYDPALGSFRVRPFPVPPVLPISREAAAEILRRELGLPREVVERLLASAGG [r13_824_TrMRF] | 3.438 ± 0.033 kcal/mol | 3.15 ± 0.093 kcal/mol | 2.58 ± 0.082 kcal/mol |
| SAGGSMADPGKAKAKVVIGGVEFEFDTTVTVADDPDGRKVLIFTFPDGTPVEIPLEDAEKILEVEGSAGGSA [r2_297_TrMRF] | 1.66 ± 0.03 kcal/mol | 1.43 ± 0.067 kcal/mol | 0.996 ± 0.024 kcal/mol |
| SAGGSMELKPGDSIEFPENIPLDEIIELAKKIAEEFNFEGIEDIENPSEGFYRIRAITPDGRPIEISAGGSA [r2_168_TrMRF] | 0.141 ± 0.18 kcal/mol | 0.0617 ± 0.18 kcal/mol | -0.147 ± 0.23 kcal/mol |
| SAGGSMELYTKSPDGKLFKVKIVNPGNAKDKVLFEAEVFDPKNNKPIGRFTGVVDPKTGKIISIKPSAGGSA [r2_324_TrMRF] | 1.68 ± 0.083 kcal/mol | 1.64 ± 0.13 kcal/mol | 1.6 ± 0.035 kcal/mol |
| SAGGSMEVEEFETTDPATGKPYRLRFTYDSETGIPVLEVFAPDGTPLATVPVEPGEAEAARERLGASAGGSA [r2_115_JUSTAS] | 1.14 ± 0.085 kcal/mol | 0.767 ± 0.058 kcal/mol | 0.0239 ± 0.063 kcal/mol |
| SAGGSMEVKVVSYDEEKGVLVIEVDEDETVEELVERLRSIPGLKVEVEVVEKDGKLYVVIRVEKKESAGGSA [r2_44_TrROS_Hall] | 4.27 ± 0.09 kcal/mol | 3.98 ± 0.18 kcal/mol | 3.17 ± 0.13 kcal/mol |
| SAGGSMEVVVTFPDGSKEVIPEEPLKKLAEELGIPWDEEDPEAQWEAIARALAEKTGKPVEKVEIASAGGSA [r2_83_TrMRF] | 2.24 ± 0.17 kcal/mol | 2.09 ± 0.093 kcal/mol | 1.97 ± 0.072 kcal/mol |
| SAGGSMFKVEEVETLENGEVLAKLTVYLDGKPYPATARIYTLPDGRKVAEIYFPDNPNVSLRIPLTSAGGSA [r2_376_TrMRF] | 4.14 ± 0.024 kcal/mol | 4.1 ± 0.053 kcal/mol | 3.91 ± 0.059 kcal/mol |
| SAGGSMKFSATVEYDPANNIYTVTVPITRKDTGEVIPVSVPVPGSDLTTAEQLAEEIAEKLEKEGLSAGGSA [r2_221_JUSTAS] | 0.518 ± 0.14 kcal/mol | 0.621 ± 0.19 kcal/mol | 0.627 ± 0.092 kcal/mol |
| SAGGSMKITVTVSYSELKEKYPDLTEEELKELAEEIAKEKKKEIIEGNPDISENTEIEVKIEKPAVIESAGG [r13_634_JUSTAS] | 2.27 ± 0.052 kcal/mol | 1.84 ± 0.12 kcal/mol | 0.76 ± 0.11 kcal/mol |
| SAGGSMKVFVFEVKVEVEVKLDKDGNLTVEIKKVEVKPVKKIPLSEEELEKLREAKKKGLTLEEILSAGGSA [r2_327_TrROS_Hall] | 3.26 ± 0.1 kcal/mol | 2.78 ± 0.18 kcal/mol | 2.07 ± 0.11 kcal/mol |
| SAGGSMKVYEFKSLEEIKKAIENLPPNEKYIVIKKNKNGKLEIIIVSKEEEEELKKKGVDFIIKVKSAGGSA [r2_351_TrROS_Hall] | 2.21 ± 0.07 kcal/mol | 1.95 ± 0.43 kcal/mol | 0.788 ± 0.089 kcal/mol |
| SAGGSMLEKEEGDTLVKTVLQPVPEDLSREVLVTTTTKLLPNGSEVTVTVRSPFTGEPLSSSVVLSSAGGSA [r2_412_JUSTAS] | 0.635 ± 0.13 kcal/mol | 0.602 ± 0.066 kcal/mol | 0.458 ± 0.054 kcal/mol |

| Sequence | folding stability dG unfold [1] | folding stability dG unfold [2] | folding stability dG unfold [3] |
| --- | --- | --- | --- |
| SAGGSMLSTEPKETDDEIKVTKIYYPEEPIEVTLTTDPDTDLVTATSPSSTATIDAKTGKTTTTPSSSSAGG [r13_416_JUSTAS] | 0.876 ± 0.039 kcal/mol | 0.545 ± 0.14 kcal/mol | -0.285 ± 0.1 kcal/mol |
| SAGGSMMKVTIVDKDGKERVFTFPKDMTEEEVLERIKKELEAEGVEVEEVEVERREDGSLVIRVKKSAGGSA [r2_148_TrROS_Hall] | 3.71 ± 0.064 kcal/mol | 3.93 ± 0.14 kcal/mol | 4.16 ± 0.4 kcal/mol |
| SAGGSMPFRPLDVKVTVERLPDGTIRITTTLRQPDSPAAVTTEVKEVPLAELVKKRGRPVTAEDLLSAGGSA [r2_180_JUSTAS] | 1.21 ± 0.096 kcal/mol | 0.858 ± 0.19 kcal/mol | 0.132 ± 0.12 kcal/mol |
| SAGGSMPPETEVTVTVEEFEEDPSRRLRVTITTPDGTVVTTDLENPGELSPEEEARIAALAAALAASAGGSA [r2_17_JUSTAS] | 1.96 ± 0.027 kcal/mol | 1.58 ± 0.055 kcal/mol | 0.486 ± 0.026 kcal/mol |
| SAGGSMPVEIKLLEEEVLPDGVTIKKVKAEDGSEMTVTVTKLPGNTYKVTITNPANGTTSTFTLPESAGGSA [r2_361_JUSTAS] | 1.73 ± 0.055 kcal/mol | 1.45 ± 0.077 kcal/mol | 0.932 ± 0.035 kcal/mol |
| SAGGSMRITKIEIEPNPNGDYKITITMTENGHITVEVMNPNGKPKEVEVNMPNGDPEEVVKEAIKASAGGSA [r2_298_TrROS] | 2.25 ± 0.1 kcal/mol | 1.63 ± 0.083 kcal/mol | 0.686 ± 0.041 kcal/mol |
| SAGGSMRLVERTFVPVKTFTFLSTFNLIQPPGVPVPTFTTLTVVFTPVFTRLVEVVTEPPGRVVEVLLSAGG [r13_148_JUSTAS] | 4.33 ± 0.13 kcal/mol | 4.06 ± 0.21 kcal/mol | 3.73 ± 0.15 kcal/mol |
| SAGGSMSLEEIKKLEIELEKEEGEKLKAEVTVLPDGKLFVRVNGKLFEIDLKTGKIVEVKELPPDESAGGSA [r2_374_TrROS_Hall] | 2.38 ± 0.057 kcal/mol | 2.47 ± 0.21 kcal/mol | 2.49 ± 0.19 kcal/mol |
| SAGGSMSPEEKARKLAEELRKKLPPGAKVRIKVEVDGKTYEIEIEPGEEIEFPPGEKVKIVEIEVESAGGSA [r2_391_TrROS_Hall] | 2.82 ± 0.2 kcal/mol | 2.98 ± 0.3 kcal/mol | 3.12 ± 0.16 kcal/mol |
| SAGGSMTAPVKVLIKVPPNIPLSDIVKKLSAIPGIGAKPISYDPETGYALVDIGATDPEALKEAIGSAGGSA [r2_305_TrMRF] | 2 ± 0.029 kcal/mol | 1.9 ± 0.057 kcal/mol | 1.67 ± 0.057 kcal/mol |
| SAGGSMTFEIVEVTYDEETDEVTVRVRLPNGEVVTLSAEEIEKAIKEGKTITFTLENGEKLEIEVLSAGGSA [r2_301_TrROS_Hall] | 2.58 ± 0.03 kcal/mol | 2.27 ± 0.084 kcal/mol | 1.49 ± 0.038 kcal/mol |
| SAGGSMTLEEKSEEDYIIRYVEKGDTYSLIKINPNTGTAEVTTFKPGGVPSKTTYKIPKGKELKVTGSAGGS [r8_11_JUSTAS] | 0.726 ± 0.12 kcal/mol | 0.481 ± 0.079 kcal/mol | -0.0399 ± 0.11 kcal/mol |
| SAGGSMTLRLPVPEDVEVVEVTAEVPDPETGKVYVFRSRARVVPYKDGVYLTVDLDPDGRSYGFDPSAGGSA [r2_123_TrMRF] | 0.56 ± 0.12 kcal/mol | 0.835 ± 0.059 kcal/mol | 1.07 ± 0.096 kcal/mol |
| SAGGSMTLTFTDPSTGTTTTVTKLPNGKYVVTTTTTTSTNPEVSPTGETVGPATTTTTTVLPPAELSAGGSA [r2_195_JUSTAS] | 1.79 ± 0.024 kcal/mol | 1.86 ± 0.065 kcal/mol | 2 ± 0.12 kcal/mol |
| SAGGSMTLTGESEEEAKALVEALKEELKKKYPEKPNLEIPVKVIIKDPKTGKETEKVFKVKIPIPKSAGGSA [r2_393_JUSTAS] | 1.11 ± 0.09 kcal/mol | 1.14 ± 0.062 kcal/mol | 1.04 ± 0.028 kcal/mol |
| SAGGSMTLTIEVDGKTVEITEVREKEDGEKVVRIRVTTPDGEEKEIEMTLDELAEILGLSKEELEPSAGGSA [r2_262_TrROS_Hall] | 2.67 ± 0.085 kcal/mol | 3.27 ± 0.18 kcal/mol | 3.75 ± 0.19 kcal/mol |
| SAGGSMTTTTEDKGDGRIVTTTIPEEGTVVTTTIFYEPGGPKVETKTTTTPVPPLPSTVVTSPNLASAGGSA [r2_375_JUSTAS] | 1.15 ± 0.13 kcal/mol | 0.937 ± 0.34 kcal/mol | 0.572 ± 0.093 kcal/mol |
| SAGGSMVLLSEETIGDIKIKTYKDPNGGVITVIEKPGERTIEFIYPDGILTIEFPPDGTKKYSFDPIGSAGG [r13_246_JUSTAS] | 2.32 ± 0.071 kcal/mol | 2.29 ± 0.1 kcal/mol | 2.01 ± 0.049 kcal/mol |
